Among the targets are Aβ1-40; AβN3E-42; AβN3pE-42.
Experiment in all cases: ELISA, peptide coated at 1 µg/mL, mAb4G8 diluted 1000 times, HRP anti-mouse Igs
Background: In an ELISA, binding on a coated surface is turned into a signal by an enzyme label.

One substance from patent publication US7122374 can be followed below.

AβN3pE-42, sequence (peptide, as listed by the source): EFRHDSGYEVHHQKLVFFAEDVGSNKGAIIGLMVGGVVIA
Aβ1-40, sequence (peptide, as listed by the source): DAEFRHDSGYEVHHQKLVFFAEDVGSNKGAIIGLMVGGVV

As to “monoclonal antibody mAb4G8 (SENETEC Inc)”, the absorbance at 450 nm is 1.57 A450 with Aβ1-40, 1.39 A450 with AβN3E-42 and 2.27 A450 with AβN3pE-42.
